Legend:
UbcH5B (Homo sapiens) = UbcH5B (Homo sapiens) (UniProt P62837); assay: ITC; settings: cited from earlier work
[1] = molecular target: Arkadia (RNF111) LONG, residues 876-994 (Ark LONG, 119 aa) (human) (UniProt Q6ZNA4)
[2] = molecular target: Arkadia (RNF111) LONG, residues 876-994 (Ark LONG, 119 aa) (human) (UniProt Q6ZNA4); assay: ITC; 1-3 mM E2 in the syringe injected (2 uL, 15-19 injections) into 100-300 uM Arkadia polypeptide in the cell; 25 °C; 50 mM KH2PO4, 50 mM K2HPO4 pH 7; single-site model
[3] = molecular target: Arkadia LONG R983A (human) (UniProt Q6ZNA4); assay: as above
Arkadia LONG R983A (human), sequence (Q6ZNA4 876-994 R983A): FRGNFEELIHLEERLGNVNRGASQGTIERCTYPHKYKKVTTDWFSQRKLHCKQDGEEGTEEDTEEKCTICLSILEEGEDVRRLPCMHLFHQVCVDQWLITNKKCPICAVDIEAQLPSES

[4] = molecular target: Arkadia LONG R983K (human) (UniProt Q6ZNA4); assay: as above
Arkadia LONG R983K (human), sequence (Q6ZNA4 876-994 R983K): as the sequence (Q6ZNA4 876-994 R983A) above, with A108K counted along it

UbcH5B (UBE2D2), sequence (P62837 whole entry): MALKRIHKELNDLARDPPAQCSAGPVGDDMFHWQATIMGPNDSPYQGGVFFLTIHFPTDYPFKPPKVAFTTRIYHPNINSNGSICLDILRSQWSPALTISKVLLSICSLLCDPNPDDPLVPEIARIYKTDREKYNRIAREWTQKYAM
Arkadia (RNF111) LONG, residues 876-994 (Ark LONG, 119 aa) (human), sequence (Q6ZNA4 876-994): as the sequence (Q6ZNA4 876-994 R983A) above, with A108R counted along it
UbcH5B (Homo sapiens), sequence (P62837 whole entry, the tested form may be a part): as the sequence (P62837 whole entry) above
Arkadia RING RING, sequence (Q6ZNA4 939-986): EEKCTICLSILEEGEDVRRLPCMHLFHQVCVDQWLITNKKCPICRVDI

| Substance | Kd (UbcH5B (Homo sapiens)) [µM] | in vitro auto-ubiquitylation of Ark LONG: time until polyubiquitylation is achieved [1] [min] | dH [2] [kcal/mol] | stoichiometry N [2] | dH [3] [kcal/mol] | stoichiometry N [3] | dH [4] [kcal/mol] | stoichiometry N [4] |
| --- | --- | --- | --- | --- | --- | --- | --- | --- |
| Arkadia RING RING (from UniProt Q6ZNA4) | 32 |  |  |  |  |  |  |  |
| UbcH5B (UBE2D2) (from UniProt P62837 1-147) (enzyme) |  | 5 | -4.7 | 0.6 | -5.8 | 0.7 | -3.6 | 0.5 |
